Test [1] deals with T1, human TF (Homo sapiens, UniProt P13726).
T1 construct: purchased Lake Pharma
The experiment in a line: Biacore off-rate and kinetic binding, human TF. As to conditions: Table 12; 25° C., 1:1 Langmuir. The method, then:
(§1) Anti-Fc polyclonal antibodies were immobilized onto a CM4 chip (Cytiva #BR100534) using amine coupling chemistry (Human Antibody Capture Kit, Cytiva #BR100839). The immobilization steps were carried out at a flow rate of 25 μL/min in 1×HBS-EP+buffer (Cytiva #BR100669). The sensor surfaces were activated for 7 min with a mixture of N-hydroxysuccinimide (NHS, 0.05 M) and 1-ethyl-3-(3-dimethylaminopropyl)-carbodiimide (EDC, 0.2 M). The anti-Fc polyclonal antibodies were injected over all 4 flow cells at a concentration of 25 μg/mL in 10 mM sodium acetate, pH 4.5, for 7 min. Ethanolamine (1 M, pH 8.5) was injected for 7 min to block any remaining activated groups. Approximately 6,000 response units (RU) of capture antibody was immobilized on each flow cell.
(§2) Off-rate and kinetic binding experiments were performed at 25° C. using 1×HBS-EP+buffer. Antibodies were injected over the anti-Fc surface at a concentration of 3 μg/mL for 12 seconds at a flow rate of 10 μL/min on flow cells 2, 3 and 4, followed by a buffer wash for 30 seconds at the same flow rate. Single point off-rate analysis was carried out using an antigen concentration of 100 nM. […] After capturing ligand (antibody) on the anti-Fc surface, the analyte (human TF, Lake Pharma; cynomolgus TF, Sino Bio #90885-C08H; mouse TF, R&D Systems #3178-PA) was bound for 180 seconds, followed by a 420 second dissociation phase at a flow rate of 50 μL/min. Between each ligand capture and analyte binding cycle, regeneration was carried out using 2 injections of 10 mM glycine pH 2.0 for 30 seconds at 30 μL/min, followed by a 30 second buffer wash step.
(§3) The data were fit with the Biacore T200 Evaluation software, using a 1:1 Langmuir binding model. KD (affinity, nM) was determined as a ratio of the kinetic rate constants calculated from the fits of the association and dissociation phases.
(§4) Anti-Fc polyclonal antibodies were immobilized onto a CM4 chip (Cytiva #BR100534) using amine coupling chemistry (Human Antibody Capture Kit, Cytiva #BR100839). The immobilization steps were carried out at a flow rate of 25 μL/min in 1×HBS-EP+buffer (Cytiva #BR100669). The sensor surfaces were activated for 7 min with a mixture of NHS (0.05 M) and EDC (0.2 M). The Anti-Fc antibodies were injected over all 4 flow cells at a concentration of 25 ug/ml in 10 mM sodium acetate, pH 4.5, for 7 min. Ethanolamine (1 M, pH 8.5) was injected for 7 min to block any remaining activated groups. Approximately 6,000 response units (RU) of capture antibody was immobilized on each flow cell. Off-rate and kinetic binding experiments were performed at 25° C. using 1×HBS-EP+buffer. Antibodies or ADCs were injected over the anti-Fc surface at a concentration of 3 μg/mL for 12 seconds at a flow rate of 10 μL/min on flow cells 2, 3 and 4, followed by a buffer wash for 30 seconds at the same flow rate. […] After capturing ligand (antibody) on the anti-Fc surface, the analyte (human TF, Lake Pharma; cynomolgus TF, Sino Bio #90885-C08H; mouse TF, R&D Systems #3178-PA) was bound for 180 seconds, followed by a 420 second dissociation phase at a flow rate of 50 μL/min. Between each ligand capture and analyte binding cycle, regeneration was carried out using 2 injections of 10 mM Glycine pH 2.0 for 30 seconds at 30 μL/min, followed by a 30 second buffer wash step. The data was fit with the Biacore T200 Evaluation software, using a 1-1 Langmuir binding model. KD (affinity, nM) was determined as a ratio of the kinetic rate constants calculated from the fits of the association and dissociation phases.

For test [2], the system named is cynomolgus TF. The experiment in a line: Biacore off-rate and kinetic binding, cynomolgus TF. To be noted: Table 12; 25° C., 1:1 Langmuir. How it is done: as §1, §2, §3, §4
cynomolgus TF, sequence (as listed by the source): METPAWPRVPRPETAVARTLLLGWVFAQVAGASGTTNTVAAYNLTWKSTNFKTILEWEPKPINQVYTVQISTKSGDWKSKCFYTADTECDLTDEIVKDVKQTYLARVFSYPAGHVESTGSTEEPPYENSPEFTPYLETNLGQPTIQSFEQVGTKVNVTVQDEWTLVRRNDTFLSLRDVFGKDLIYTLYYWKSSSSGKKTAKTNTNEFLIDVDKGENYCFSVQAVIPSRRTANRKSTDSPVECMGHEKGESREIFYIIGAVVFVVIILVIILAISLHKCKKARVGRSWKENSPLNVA
Test [3] concerns primary human keratinocytes. The experiment in a line: ADC cell killing on primary adult human keratinocytes (WST-8). In kind it is cell-based. As to conditions: Table 30, 120 hours, read-out: Keratinocyte Killing EC50.
Procedure: To evaluate the cytotoxicity effects of the ADC on the adult primary keratinocytes, a total of 2000 keratinocytes in a volume of 50 microliters were seeded in a 96-well flat bottom cell culture plate coated with keratinocyte coating matrix (Thermo Fisher Scientific) the day before the actual assay starts. ADCs were formulated at 2× starting concentration in cell culture medium and filtered through SpinX 0.22 micron cellulose acetate filtered 2 mL centrifuge tubes (Corning Costar). Filter sterilized samples were serial diluted (1:3) under sterile conditions and added onto cells in triplicates. Plates were cultured at 37° C. in a CO2 incubator for 120 hours. For cell viability measurement, 10 microliters of WST-8 reagent (VWR) were added into each well and plates were incubated at 37° C. in a CO2 incubator for 4 hours. […] Data was fitted with non-linear regression analysis, using log (inhibitor) vs. response, variable slope, 4-parameter fit equation using GraphPad Prism. Data was expressed as % relative cell viability vs. dose of free linker-warhead or ADC in nanomolar with error bars indicating the Standard Deviation (SD) of the triplicates.
The subject of test [4] is primary human keratinocytes. The experiment in a line: Cell binding on primary adult human keratinocytes (flow cytometry). To be noted: Table 29, primary human keratinocytes. How it is done: Since TF is expressed in human skin, anti-TF antibody 2900-A02 and 2842-B01-Hc3/Lc2 were tested in cell binding assay on primary adult human keratinocyte cells purchased from Thermo Fisher Scientific. Keratinocytes were cultured in defined keratinocyte culture medium (EpiLife Medium, Thermo Fisher Scientific) supplemented with growth supplement S7 (S0175 from Thermo Fisher Scientific) and Penicillin/Streptomycin on plates coated with keratinocyte coating matrix (Thermo Fisher Scientific).
To evaluate antibody binding activity of the anti-TF antibodies on the adult primary keratinocytes, a total of 100,000 keratinocytes per well were incubated on ice with serial dilutions of anti-TF antibodies in FACS buffer (PBS buffer supplemented with 1% bovine serum albumin, 0.05% sodium azide) for 60 minutes. Cells were washed twice with ice-cold FACS buffer and then incubated with 5 microgram/mL Alexa 647 labeled donkey anti-human Fc antibody (Jackson ImmunoResearch, West Grove, PA) on ice for another 60 minutes. Unstained cells and cells stained with secondary antibodies alone were used as controls. Samples were then washed twice using FACS buffer and analyzed using an Attune flow cytometer (Thermo Fisher). Geometric mean fluorescence intensities were fitted using non-linear regression analysis with one site specific binding equation on GraphPad Prism.

For test [5], the system named is HEK293T. The experiment in a line: FACS cell-binding assay on parental HEK293T cells. To be noted: Table 16, parental cells. The text has this:
HEK293T, BxPC3 cells (TF positive) and NCI-H1703 (TF negative) cells were obtained from ATCC (American Type Culture Collection) and maintained in DMEM:F12 (1:1), high glucose (Corning) supplemented with 10% heat-inactivated fetal bovine serum (ThermoScientific), 1× Penicillin/Streptomycin (Corning) and 2 mmol glutamax (Thermo Fisher Scientific). To generate cells that stably expressing human tissue factor (HEK293T-humanTF) or cynomolgus tissue factor (HEK293T-cynoTF), HEK293T cells were transfected with plasmid vectors that contain the corresponding protein sequence and stable clones were selected with puromycin.
For a fluorescence-activated cell sorting (FACS) cell-binding assay, cells were collected by Accutase and counted by the Vi-CELL Cell Viability Analyzersharvested and, then re-suspended in FACS buffer (DPBS buffer supplemented with 1% bovine serum albumin). A total of 200,000 cells in 100 μL were incubated on ice with 100 μL of anti-TF antibodies in each well of a 96-well plate. Cells were washed twice with ice-cold FACS buffer and then incubated on ice for 60 mins with 5 μg/mL Alexa 647-labeled donkey anti-human Fc antibody (Jackson ImmunoResearch). Unstained cells and cells stained with secondary antibody alone were used as controls. Cells were washed twice with FACS buffer and analyzed using a BD FACS Canto system. Geometric mean fluorescence intensities (MFI) were fitted using non-linear regression analysis with one site specific binding equation on GraphPad Prism (GraphPad Software; La Jolla, CA).

Bounds are passed on as bounds.

T1 sequence (P13726 33-295): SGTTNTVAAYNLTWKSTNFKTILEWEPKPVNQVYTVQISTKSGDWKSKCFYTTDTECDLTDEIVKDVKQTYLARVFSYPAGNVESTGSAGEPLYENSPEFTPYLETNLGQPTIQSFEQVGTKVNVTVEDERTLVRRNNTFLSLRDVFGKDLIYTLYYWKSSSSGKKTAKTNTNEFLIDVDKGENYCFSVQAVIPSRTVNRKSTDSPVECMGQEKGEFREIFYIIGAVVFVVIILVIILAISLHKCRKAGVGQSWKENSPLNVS

B1: 37 (antibody)
heavy: MEVQLVESGGGLVQPGGSLRLSCAASGFSISSYDMSWVRQAPGKGLEWIGIIGSNGRTYYPDSVKGRFTISRDNSKNTVTLQMNSLRAEDTAVYYCARGLYDGTGNIWGQGTLVTVSSASTKGPSVFPLAPSSKSTSGGTAALGCLVKDYFPEPVTVSWNSGALTSGVHTFPAVLQSSGLSLSSVVTVPSSSLGTQTYICNVNHKPSNTKVDKKVEPKSCDKTHTCPPCPAPELLGGPSVFLFPPKPKDTLMISRTPEVTCVVVDVSHEDPEVKFNWYVDGVEVHNAKTKPREEQYNSTYRVVSVLTVLHQDWLNGKEYKCKVSNKALPAPIEKTISKAKGQPREPQVYTLPPSREEMTKNQVSLTCLVKGFYPSDIAVEWESNGQPENNYKTTPPVLDSDGSFLYSKLTVDKSRWQQGNVFSCSVMHEALHNHYTQKSLSLSPGK
light: MELVMTQSPPTLSLSPGERVTLSCRASQSVYGNNWLSWYQQKPGQAPRLLIYGASKLATSIPARFSGSGSGTQFTLTISSLQPEDFAVYYCQGTYYSGDWYFAFGQGTKVEIKRTVAAPSVFIFPPSDEQLKSGTASVVCLLNNFYPREAKVQWKVDNALQSGNSQESVTEQDSKDSTYSLSSTLTLSKADYEKHKVYACEVTHQGLSSPVTKSFNRGEC
modifications: pAzMeF at Y180/F404; drug conjugate
As to B1, in test [1], the “Biacore human TF kinetics ka” value amounted to 57200 M⁻¹ s⁻¹ and the “Biacore human TF kinetics kd” value came out at 0.000418 s⁻¹. In test [2], the “Biacore cynomolgus TF kinetics ka” value came out at 72400 M⁻¹ s⁻¹ and the “Biacore cynomolgus TF kinetics kd” value was 0.00113 s⁻¹. Besides, in test [3], the EC50 is over 100 nM. Moreover, in test [4], the “Keratinocyte Binding Bmax” value is 151831. Further, the “HEK293T Bmax (MFI)” value in test [5] turned out to be 1062 MFI.
